According to patent US5789157:

System: unidentified red blood cell ghost membrane protein, apparent 105 kDa (target of c56t) (Homo sapiens)
Experiment: filter
Conditions: Scatchard on whole RBC ghosts, estimated, 1900 sites per cell; target taken as the 105 kDa protein from crosslinking

Sequence: AACTCAGTGGTAGGTAACGGTT [C56T (22-nt truncate of clone 56)]
- Kd: 42 pM
